Source: the nanobody polyreactivity screen of Harvey et al. (2022)

test: yeast display, Sf9 membrane polyspecificity reagent, FACS + sequencing; frameworks hold sequencing errors
Summary of the method: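 In a synthetic yeast display library (Saccharomyces cerevisiae BJ5465), nanobody expression was induced with galactose for 36–48 hours. FACS gates were set low and high (top ~1%) using anti-HA fluorescence for expression and streptavidin fluorescence for binding of the Sf9 membrane reagent. Each polyreactivity label is drawn from the gate of origin.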

Which “polyreactivity (PSR sort gate)” value does the source give for “QVQLVESGGGLVQAGGSLRLSCAASGSTFSDNDMGWYRQAPGKERELVATIDDDGSTYYADSVKGRFTISRDNAKNTVYLQMNSLKPEDTAVYYCAAEWYGGYPFGYWGQGTQVTVSS” here?
The value was “low polyreactivity”.

For “QVQLVESGGGLVQAGGSLRLSCAASGFIFGSNAMGWYRQAPGKERELVAAIDSSGGRTYYADSVKGRFTISRDNAKNTVYLQMISLKPEDTAVYYCNVYRWSQLFEYDYWGQGTQVTVSS”, which “polyreactivity (PSR sort gate)” value is on record?
The value was “high polyreactivity”.

With “QVQLEESGGGLVQAGGSLRLSCAASGRTFYPYAMGWYRQAPGKEREFVARITWSGGRTYYADSVKGRFTISRDNAKNTVYLQMNSLKPEDTAVYYCAARGHDAVIATRYDYWGQGTQVTVSS” as the sequence, how does the “polyreactivity (PSR sort gate)” value read?
Its value is “high polyreactivity”.

Which “polyreactivity (PSR sort gate)” value does the source give for “QVQLVESGGGLVQAGGSLRLSCAASGRIFDTYVMGWYRQAPGKERELVAAISGSGGSTYYADSVKGRFTISRDIAKNTVYLQMNSLKPEDTAVYYCAAARRYYAYRYDYWGQGTQVSVSS” here?
Its value is “high polyreactivity”.

With “QVQLVESGGGLVQAGGSLRLSCAASGSICRQYTMGWYRQAPGKERELVAGINQSGDSTSADSVKGRFTISRDNAKNTVYLQMNSLKPEDTAVYYCNADPRVWYRNIYPGRNYDYWGQGTQVTVSS” as the sequence, how does the “polyreactivity (PSR sort gate)” value read?
Its value is “low polyreactivity”.

Which “polyreactivity (PSR sort gate)” value does the source give for “QVQLVESGGGLVQAGGSLRLTCAASGNIFKVYAMGWSRQAPGKERELVAAITSGGGTKYADSVKGRFTISRDNAKNTVYLQMNSLKPEDTAVYYCAARFKYDVAKRYGYWGQGTQVTVSS” here?
The value was “high polyreactivity”.

Which “polyreactivity (PSR sort gate)” value does the source give for “QVQLVESGGGLVQAGGSLRLSCAASGFTFRYYAKGWYRQAPVKERELVARISRGGNTYYADSVKGRLTISRDNAKNTVYLHMNSLKPEDTAVYYCAVDLTRTLSGMDYWGQGTQVTVSS” here?
The value was “high polyreactivity”.

Which “polyreactivity (PSR sort gate)” value does the source give for “QVQLQESGGGLVQVGGSQRLSCAASGNIFYNYAMGWYRHAHGKEREFDATINHGTSINYADSVKGRFTISRDNAKNTVYLQMNSLKPEDTAVYYCAADLSWTDNLFYWGQGTQVTVSS” here?
The value was “low polyreactivity”.

Which “polyreactivity (PSR sort gate)” value does the source give for “QVHLVESGGGLVQAGGSLRLSCAASGSTFSYYAMGWYRQAPGKERELVAAISRSGGSTYYPDSVKGRFTISRDNAKNTVYLQMNSLKPEDTADYSCNRYYYTVTREFDYWGQGSQVTVSS” here?
The value was “low polyreactivity”.

With “QVQLVESGGGLVQAGVSLRLSCAASGSTFTYNAKGWYRQEPGKEMELVAAIRSNGGSTYADSVKGRFTISRDNAKNTVYFQMNSMKPEDTAVYYCAARWRDYYRWGSRGGYGYWGQGTQVTVSS” as the sequence, how does the “polyreactivity (PSR sort gate)” value read?
The value was “high polyreactivity”.

With “QVQLVESGGGLDQAGGSLRLSCAASGFIFTVYAMGWYRQAPGKEREVVAAISSGGSTYYADSVKGRFTISRDNAKNTVYLQMNSLKPEDTADYYCAAQPSYRYYKSYDSWGQGTQVTVSS” as the sequence, how does the “polyreactivity (PSR sort gate)” value read?
Its value is “high polyreactivity”.

For “QVQLVESGGGLVQAGGSLRLSCAASGFTFQYYAKGWYRQAPGKERELVAAISSSGGSTFYADSVKGRFTSSRDNAKNTVYLQMNSLKPEDTAVYYCATYTSPGYYYWGQGTQVTVSS”, which “polyreactivity (PSR sort gate)” value is on record?
Its value is “high polyreactivity”.

For “QGQLVESGGALVQAGGSLRLSCAASGGTFFYYVMGWYRQAPGQERELVAAITGAGGSTYYADSVKGRFTSSRDNAKNTVYLQMNSLKPEDTAVYYCAADVSFTQSDGRLAEYGYWGQGTQVTVSS”, which “polyreactivity (PSR sort gate)” value is on record?
The value was “low polyreactivity”.

With “QVQLVESGGGLVQAGGSLRLSCAASGSTFVGNAMGWYRQAPGKERELVAAITSGGSTNYADSVKGRFTISRDNAKNTVYLQMNSLKPEDTAVYYCAKRVSGSPPTAGSLSDSWGQGTQVTVSS” as the sequence, how does the “polyreactivity (PSR sort gate)” value read?
The value was “high polyreactivity”.

Which “polyreactivity (PSR sort gate)” value does the source give for “QVQLVESGGGLVQAGGSLRLSCAASVSIFRKNAMGWYRQAPGKERELVAAITYRTGSTYYADSVKGRFTISRDNAKNTVYLQMNSLKPEDTAVYYCAAQTWGSGYGHIGRRRHDYWGQGTQVTVSS” here?
The value was “high polyreactivity”.

With “QVQLAESGGCLVQAGGSLRLSCAASGIIFYFYAMGWYRPAPGKERELVAAISGTGGRTYYADSVKGRFTISRDNAKNTVSLQMNSLKPDDTAVYYCNADDTPVPSIRFDYWGQGTQVTVSS” as the sequence, how does the “polyreactivity (PSR sort gate)” value read?
The value was “low polyreactivity”.

For “QVQLVESGGGLVQAGGSLRLRCAASGRTFYGYDMGWYRQAPGKERELVATISSGGSTNYADSVKGRFTFSRDNAKNTVYLQMNSLKPEDTAVYYCNADRYVDPRTYFGYDYCGQGTQVTVSS”, which “polyreactivity (PSR sort gate)” value is on record?
The value was “low polyreactivity”.

With “QVHHVESGGGLVQAGGSLRLSSAASGSIFTYTMGWYRQAPGKERELVAAISGGGGRTYYADSVKGRFTISRDNAKNNVYLQMKSLKPEDSAVYYCNAYQYWRYRWQYNYWGQGTQVTVSW” as the sequence, how does the “polyreactivity (PSR sort gate)” value read?
The value was “high polyreactivity”.

With “QVQLVESGGGLVQAGGSLRLSCAASGSIFEPYTMGWYRQAPGKERELVAAITGSGCSKFYADSVKGRFTISRDNAKNTVYLQMNSLKPEDTGVYYCNAYAYPYTDVDYWGQGTQVTVSS” as the sequence, how does the “polyreactivity (PSR sort gate)” value read?
Its value is “low polyreactivity”.

Which “polyreactivity (PSR sort gate)” value does the source give for “QVQLVESGGGLVQAGGSLRLSCAASGRIFAAYAMGWYRQAPGKERELVAAITWRGGSTYYADSVKGRFTISRDNAKNTVYLQMNSLKPEDTAVYYCNARVYYYPGYDYWGQGTQVTVSS” here?
The value was “low polyreactivity”.

With “QVQLVESGGGLVQAGGSLRLSCAASRSTIPSYAMGWSRQAPGKERELVASITYSDGTTRYADSVKGRFTISRDNAKNTVYLQMNSLKPEDTAVYYCNAVYYRDGMDYWGQGTQVTVSS” as the sequence, how does the “polyreactivity (PSR sort gate)” value read?
The value was “low polyreactivity”.

Which “polyreactivity (PSR sort gate)” value does the source give for “QVQLVESGGGLVQAGGSLRLICPASGSIFYYYAMGWYRQAPGKERELVAAISYSDDDTYYADSVKGRFTISRDNAKNTVYLQMNSLKPEDTAVYYCAAEFTIAWSYTMDYWVQGTQVTVSS” here?
Its value is “high polyreactivity”.

For “QVQLVESGGGLVQAGGSLRLSCAASGSTFYYNVMGWYRQAPGKERELVAAITLSGGSTYADSVKGRFTISRDNAKNTVYLQMNSLKPEDTAVYYCAKKGRYGRWGYKFDYWGQGTQVTVSS”, which “polyreactivity (PSR sort gate)” value is on record?
The value was “low polyreactivity”.

Which “polyreactivity (PSR sort gate)” value does the source give for “QVQLVESGGGLVQAGGSLRLSCSASGRTFYRNAMGWYRQSPGKESEFVAVISVSGGSTYYADSVKGRFTISRDNAKNTVYLQMNSLKPEDTAVYYCAADEYYTFSCFELRRMDYWGQGTQVTVSS” here?
Its value is “low polyreactivity”.

With “QVQLVDSGGGLVQAGGSLRLSCPASGFNFYRNAMGSYRQAPGKERELVAAISGSGGRTYYADSVKGRFTISRDNAKNTVYLQMNSLKPEDTAVYYCATDYAYSPYRYWTRYDYWGQGTQVTVSS” as the sequence, how does the “polyreactivity (PSR sort gate)” value read?
Its value is “high polyreactivity”.

With “QVQLVESGGGLVQAGGSLRLSCAASGRILEVYAMGWYRQAPGKERELVAAIRWSDGNTYYADSVKGRFTISRDNAKNTVYLQMNSLKPEDTAVYYCAARTPGGYDWGQGTQVTVSS” as the sequence, how does the “polyreactivity (PSR sort gate)” value read?
Its value is “high polyreactivity”.

With “QVQLVESCGGLVQAGGSLRLSCAASGSTFVHNAMGWNRQAPGKESELVAAITSRTGITYYADSLKGRFTISRDNAKNTFYLEMNSLKPEDTSVFYCAKRHVRTHRLQFDYWGQGTQVTVSS” as the sequence, how does the “polyreactivity (PSR sort gate)” value read?
Its value is “high polyreactivity”.

For “QVQLVESGGGLVQAGGSLRLSCAASGRIFGYYTMGWYRQAPGKERELVAAINGRGTSTYYADSVKGRFTISRDNAKNTVYLQMNSLKPEDTAVYYCAADGYTRADDYWGQGTQVTVSS”, which “polyreactivity (PSR sort gate)” value is on record?
Its value is “high polyreactivity”.

For “QVQLVESGGGLVQAGGSLRLSCAASGRIFDRYAMGWYRQAPGKERELVASITSSGGNTYYADSVKGRFTISRDNAKNTVYLQMNSLKPEDTAVYYCAKPQRVWQYGNYYYWGQGTQVTVSS”, which “polyreactivity (PSR sort gate)” value is on record?
Its value is “high polyreactivity”.

Which “polyreactivity (PSR sort gate)” value does the source give for “QVQLVESGGGLVQAGGSLRLSCAASGGTFGYNAMGWYRQAPGKERELVAAISYSGTSTYYADSVKGRFTISRDNAKNTVYLQMNSLKPEVTAVYYCNAGRYIKMGDWGQGSQVTVSS” here?
The value was “high polyreactivity”.

Which “polyreactivity (PSR sort gate)” value does the source give for “QVQLVESGGGLFQAGGSLRLSCAASGRTVVGYAMGWYRQAPGKERELVAAFTGSGGRTYDADSVKGRFTISRDNAKNTVYLQMKSLKPEDTAVYYCNNVYRFSSGAYLYDYWVQGTQVTVSS” here?
Its value is “high polyreactivity”.

With “QVQLVESGGGLVQAGGSLRLSCAASGSIFGGYAMGWYRQAPGKERELVAAITWNGGSTYYADSVKGRFTISRDNAKNTVYLQMNSLKPEDTAVYYCAAELPGRDAGRYDYWGQGTQVTVSS” as the sequence, how does the “polyreactivity (PSR sort gate)” value read?
Its value is “low polyreactivity”.
